Data: patent US20070105771A1 (Y S THERAPEUTICS, published 2007)

Legend:
Test in all cases: peptide microarray
[1] = target: T1, human CD26-derived 13 mer peptide 67 (human)
T1 construct: also called LPSYRITWTGKED
T1 peptide: LPSYRITWTGKED
Procedure: (§1) The overnight incubation was followed by three washings with each of PBS buffer pH 7.5 and water. The microarrays were then scanned using ArrayWorx-Microarray Scanner.
(§2) The SPOT recognition software package ArrayPro was used for data analysis. The mean of signal intensities from 3 identical subarrays on each microarray image was used for data evaluation.

[2] = target: T2, human CD26-derived 13 mer peptide 72 (human)
T2 peptide: KEDIIYNGITDWV
Procedure: as §1, §2

[3] = target: T3, human CD26-derived 13 mer peptide 75 (human)
T3 peptide: NGITDWVYEEEVF
Procedure: as §1, §2

[4] = target: T4, human CD26-derived 13 mer peptide 77 (human)
T4 peptide: DWVYEEEVFSAYS
Procedure: as §1, §2

[5] = target: T5, human CD26-derived 13 mer peptide 79 (human)
T5 peptide: EEEVFSAYSALWW
Procedure: as §1, §2

[6] = target: T6, human CD26-derived 13 mer peptide 80 (human)
T6 peptide: EVFSAYSALWWSP
Procedure: as §1, §2

[7] = target: T7, human CD26-derived 13 mer peptide 83 (human)
T7 peptide: SALWWSPNGTFLA
Procedure: as §1, §2

[8] = target: T8, human CD26-derived 13 mer peptide 84 (human)
T8 peptide: LWWSPNGTFLAYA
Procedure: as §1, §2

[9] = target: T9, human CD26-derived 13 mer peptide 85 (human)
T9 peptide: WSPNGTFLAYAQF
Procedure: as §1, §2

[10] = target: T10, human CD26-derived 13 mer peptide 90 (human)
T10 peptide: AQFNDTEVPLIEY
Procedure: as §1, §2

[11] = target: T11, human CD26-derived 13 mer peptide 93 (human)
T11 peptide: EVPLIEYSFYSDE
Procedure: as §1, §2

[12] = target: T12, human CD26-derived 13 mer peptide 95 (human)
T12 peptide: IEYSFYSDESLQY
Procedure: as §1, §2

[13] = target: T13, human CD26-derived 13 mer peptide 99 (human)
T13 peptide: ESLQYPKTVRVPY
Procedure: as §1, §2

[14] = target: T14, human CD26-derived 13 mer peptide 106 (human)
T14 peptide: KAGAVNPTVKFFV
Procedure: as §1, §2

[15] = target: T15, human CD26-derived 13 mer peptide 109 (human)
T15 peptide: PTVKFFVVNTDSL
Procedure: as §1, §2

[16] = target: T16, human CD26-derived 13 mer peptide 112 (human)
T16 peptide: VVNTDSLSSVTNA
Procedure: as §1, §2

[17] = target: T17, human CD26-derived 13 mer peptide 114 (human)
T17 peptide: DSLSSVTNATSIQ
Procedure: as §1, §2

[18] = target: T18, human CD26-derived 13 mer peptide 118 (human)
T18 peptide: ATSIQITAPASML
Procedure: as §1, §2

[19] = target: T19, human CD26-derived 13 mer peptide 124 (human)
T19 peptide: LIGDHYLCDVTWA
Procedure: as §1, §2

[20] = target: T20, human CD26-derived 13 mer peptide 126 (human)
T20 peptide: HYLCDVTWATQER
Procedure: as §1, §2

[21] = target: T21, human CD26-derived 13 mer peptide 128 (human)
T21 peptide: DVTWATQERISLQ
Procedure: as §1, §2

[22] = target: T22, human CD26-derived 13 mer peptide 2 (human)
T22 peptide: KNTYRLKLYSLRW
Procedure: as §1, §2

[23] = target: T23, human CD26-derived 13 mer peptide 9 (human)
T23 peptide: SDHEYLYKQENNI
Procedure: as §1, §2

[24] = target: T24, human CD26-derived 13 mer peptide 10 (human)
T24 peptide: HEYLYKQENNILV
Procedure: as §1, §2

[25] = target: T25, human CD26-derived 13 mer peptide 14 (human)
T25 peptide: NNILVFNAEYGNS
Procedure: as §1, §2

[26] = target: T26, human CD26-derived 13 mer peptide 15 (human)
T26 peptide: ILVFNAEYGNSSV
Procedure: as §1, §2

[27] = target: T27, human CD26-derived 13 mer peptide 21 (human)
T27 peptide: VFLENSTFDEFGH
Procedure: as §1, §2

[28] = target: T28, human CD26-derived 13 mer peptide 25 (human)
T28 peptide: DEFGHSINDYSIS
Procedure: as §1, §2

[29] = target: T29, human CD26-derived 13 mer peptide 26 (human)
T29 peptide: FGHSINDYSISPD
Procedure: as §1, §2

[30] = target: T30, human CD26-derived 13 mer peptide 27 (human)
T30 peptide: HSINDYSISPDGQ
Procedure: as §1, §2

[31] = target: T31, human CD26-derived 13 mer peptide 35 (human)
T31 peptide: LEYNYVKQWRHSY
Procedure: as §1, §2

[32] = target: T32, human CD26-derived 13 mer peptide 37 (human)
T32 peptide: YVKQWRHSYTASY
Procedure: as §1, §2

[33] = target: T33, human CD26-derived 13 mer peptide 38 (human)
T33 peptide: KQWRHSYTASYDI
Procedure: as §1, §2

[34] = target: T34, human CD26-derived 13 mer peptide 39 (human)
T34 peptide: WRHSYTASYDIYD
Procedure: as §1, §2

[35] = target: T35, human CD26-derived 13 mer peptide 42 (human)
T35 peptide: ASYDIYDLNKRQL
Procedure: as §1, §2

[36] = target: T36, human CD26-derived 13 mer peptide 46 (human)
T36 construct: also called NKRQL1TEERIPN
T36 peptide: NKRQLITEERIPN
Procedure: as §1, §2

[37] = target: T37, human CD26-derived 13 mer peptide 47 (human)
T37 peptide: RQLITEERIPNNT
Procedure: as §1, §2

[38] = target: T38, human CD26-derived 13 mer peptide 48 (human)
T38 peptide: LITEERIPNNTQW
Procedure: as §1, §2

[39] = target: T39, human CD26-derived 13 mer peptide 54 (human)
T39 peptide: WVTWSPVGHKLAY
Procedure: as §1, §2

[40] = target: T40, human CD26-derived 13 mer peptide 59 (human)
T40 peptide: LAYVWNNDIYVKI
Procedure: as §1, §2

[41] = target: T41, human CD26-derived 13 mer peptide 60 (human)
T41 peptide: YVWNNDIYVKIEP
Procedure: as §1, §2

[42] = target: T42, human CD26-derived 13 mer peptide 61 (human)
T42 peptide: WNNDIYVKIEPNL
Procedure: as §1, §2

B1: rhuMAb 411 (antibody, human IgG1, kappa, V domains shown)
VH: EVQLVESGAGVKQPGGTLRLTCTASGFSLTTYGVHWVRQAPGKGLEWVGVIWGDGRTDYDAAFMSRVTISKDTSKSTVYLQMNSLRAEDTAVYYCMRNRHDWFDYWGQGTTVTVSS
VL: DILLTQSPSSLSATPGERATITCRASQGIRNNLNWYQQKPGQAPRLLIYYSSNLQSGVPSRFSGSGSGTDFTLTISRLQPEDVAAYYCQQSIKLPFTFGSGTKVEIKR
notes: also called X411
B1 was tested, and the “Mean Signal Value” [1] was 0.00962, the “Mean Signal Value” [2] was 10.1 and the “Mean Signal Value” [3] was 9.38. For the same binder, the “Mean Signal Value” [4] was 13.7, the “Mean Signal Value” [5] was 96.4 and the “Mean Signal Value” [6] was 17.7. For the same binder, the “Mean Signal Value” [7] was 3.64, the “Mean Signal Value” [8] was 17.2 and the “Mean Signal Value” [9] was 1.02. The “Mean Signal Value” [10] was 0, the “Mean Signal Value” [11] was 0.269 and the “Mean Signal Value” [12] was 6.14. For the same binder, the “Mean Signal Value” [13] was 0.0865, the “Mean Signal Value” [14] was 0.245 and the “Mean Signal Value” [15] was 0. For the same binder, the “Mean Signal Value” [16] was 0, the “Mean Signal Value” [17] was 0.00481 and the “Mean Signal Value” [18] was 0. The “Mean Signal Value” [19] was 12.7, the “Mean Signal Value” [20] was 0.0337 and the “Mean Signal Value” [21] was 0.106. The “Mean Signal Value” [22] was 16.5, the “Mean Signal Value” [23] was 0.0673 and the “Mean Signal Value” [24] was 0.0192. For the same binder, the “Mean Signal Value” [25] was 0.00962, the “Mean Signal Value” [26] was 0 and the “Mean Signal Value” [27] was 0.197. For the same binder, the “Mean Signal Value” [28] was 0, the “Mean Signal Value” [29] was 0.0337 and the “Mean Signal Value” [30] was 0.00481. The “Mean Signal Value” [31] was 84.7, the “Mean Signal Value” [32] was 98.2 and the “Mean Signal Value” [33] was 4.77. The “Mean Signal Value” [34] was 55.7, the “Mean Signal Value” [35] was 0 and the “Mean Signal Value” [36] was 0. For the same binder, the “Mean Signal Value” [37] was 0, the “Mean Signal Value” [38] was 12.1 and the “Mean Signal Value” [39] was 13. For the same binder, the “Mean Signal Value” [40] was 0.683, the “Mean Signal Value” [41] was 0.0769 and the “Mean Signal Value” [42] was 0.0385.
